In PMC7954794, “Protein context shapes the specificity of SH3 domain-mediated interactions in vivo” (Nature Communications, 2021):

Test system: Abp1 PPIs
Assay: DHFR-PCA of Abp1 SH3-swapped baits (Fig. 2B-D, S2C, S2F);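 as to Protein-protein interaction distance between Abp1 SH3-swapped baits, to ABP1: Euclidean distance between DHFR-PCA score profiles of the baits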;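 as to Protein-protein interaction distance between Abp1 SH3-swapped baits, to BEM1-2: Euclidean distance between DHFR-PCA score profiles of the baits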;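 as to Protein-protein interaction distance between Abp1 SH3-swapped baits, to BOI1: Euclidean distance between DHFR-PCA score profiles of the baits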;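 as to Protein-protein interaction distance between Abp1 SH3-swapped baits, to BZZ1-1: Euclidean distance between DHFR-PCA score profiles of the baits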
Format: cell-based, Saccharomyces cerevisiae
Settings: for Protein-protein interaction distance between Abp1 SH3-swapped baits, to ABP1: Abp1 bait with swapped SH3, distance to bait with ABP1 SH3; for Protein-protein interaction distance between Abp1 SH3-swapped baits, to ABP1 / Protein-protein interaction distance between Abp1 SH3-swapped baits, to BBC1 / Protein-protein interaction distance between Abp1 SH3-swapped baits, to BEM1-1 / Protein-protein interaction distance between Abp1 SH3-swapped baits, to BEM1-2 / Protein-protein interaction distance between Abp1 SH3-swapped baits, to BOI1 / Protein-protein interaction distance between Abp1 SH3-swapped baits, to BOI2 / Protein-protein interaction distance between Abp1 SH3-swapped baits, to BUD14 / Protein-protein interaction distance between Abp1 SH3-swapped baits, to BZZ1-1 / Protein-protein interaction distance between Abp1 SH3-swapped baits, to BZZ1-2 / Protein-protein interaction distance between Abp1 SH3-swapped baits, to CDC25 / Protein-protein interaction distance between Abp1 SH3-swapped baits, to CTTN / Protein-protein interaction distance between Abp1 SH3-swapped baits, to CYK3 / Protein-protein interaction distance between Abp1 SH3-swapped baits, to DBNL / Protein-protein interaction distance between Abp1 SH3-swapped baits, to FUS1 / Protein-protein interaction distance between Abp1 SH3-swapped baits, to HCLS1 / Protein-protein interaction distance between Abp1 SH3-swapped baits, to HOF1 / Protein-protein interaction distance between Abp1 SH3-swapped baits, to HSE1 / Protein-protein interaction distance between Abp1 SH3-swapped baits, to LSB1 / Protein-protein interaction distance between Abp1 SH3-swapped baits, to LSB3 / Protein-protein interaction distance between Abp1 SH3-swapped baits, to MYO3 / Protein-protein interaction distance between Abp1 SH3-swapped baits, to MYO5 / Protein-protein interaction distance between Abp1 SH3-swapped baits, to NBP2 / Protein-protein interaction distance between Abp1 SH3-swapped baits, to PEX13 / Protein-protein interaction distance between Abp1 SH3-swapped baits, to PIN3 / Protein-protein interaction distance between Abp1 SH3-swapped baits, to RVS167 / Protein-protein interaction distance between Abp1 SH3-swapped baits, to SDC25 / Protein-protein interaction distance between Abp1 SH3-swapped baits, to SHO1 / Protein-protein interaction distance between Abp1 SH3-swapped baits, to SLA1-1 / Protein-protein interaction distance between Abp1 SH3-swapped baits, to SLA1-2 / Protein-protein interaction distance between Abp1 SH3-swapped baits, to SLA1-3 / Protein-protein interaction distance between Abp1 SH3-swapped baits, to YSC84: sheet Fig2C; for Protein-protein interaction distance between Abp1 SH3-swapped baits, to BBC1: distance to Abp1 bait with BBC1 SH3; for Protein-protein interaction distance between Abp1 SH3-swapped baits, to BEM1-1: distance to Abp1 bait with BEM1-1 SH3; for Protein-protein interaction distance between Abp1 SH3-swapped baits, to BEM1-2: distance to Abp1 bait with BEM1-2 SH3; for Protein-protein interaction distance between Abp1 SH3-swapped baits, to BOI1: distance to Abp1 bait with BOI1 SH3; for Protein-protein interaction distance between Abp1 SH3-swapped baits, to BOI2: distance to Abp1 bait with BOI2 SH3; for Protein-protein interaction distance between Abp1 SH3-swapped baits, to BUD14: distance to Abp1 bait with BUD14 SH3; for Protein-protein interaction distance between Abp1 SH3-swapped baits, to BZZ1-1: distance to Abp1 bait with BZZ1-1 SH3; for Protein-protein interaction distance between Abp1 SH3-swapped baits, to BZZ1-2: distance to Abp1 bait with BZZ1-2 SH3; for Protein-protein interaction distance between Abp1 SH3-swapped baits, to CDC25: distance to Abp1 bait with CDC25 SH3; for Protein-protein interaction distance between Abp1 SH3-swapped baits, to CTTN: distance to Abp1 bait with CTTN SH3; for Protein-protein interaction distance between Abp1 SH3-swapped baits, to CYK3: distance to Abp1 bait with CYK3 SH3; for Protein-protein interaction distance between Abp1 SH3-swapped baits, to DBNL: distance to Abp1 bait with DBNL SH3; for Protein-protein interaction distance between Abp1 SH3-swapped baits, to FUS1: distance to Abp1 bait with FUS1 SH3; for Protein-protein interaction distance between Abp1 SH3-swapped baits, to HCLS1: distance to Abp1 bait with HCLS1 SH3; for Protein-protein interaction distance between Abp1 SH3-swapped baits, to HOF1: distance to Abp1 bait with HOF1 SH3; for Protein-protein interaction distance between Abp1 SH3-swapped baits, to HSE1: distance to Abp1 bait with HSE1 SH3; for Protein-protein interaction distance between Abp1 SH3-swapped baits, to LSB1: distance to Abp1 bait with LSB1 SH3; for Protein-protein interaction distance between Abp1 SH3-swapped baits, to LSB3: distance to Abp1 bait with LSB3 SH3; for Protein-protein interaction distance between Abp1 SH3-swapped baits, to MYO3: distance to Abp1 bait with MYO3 SH3; for Protein-protein interaction distance between Abp1 SH3-swapped baits, to MYO5: distance to Abp1 bait with MYO5 SH3; for Protein-protein interaction distance between Abp1 SH3-swapped baits, to NBP2: distance to Abp1 bait with NBP2 SH3; for Protein-protein interaction distance between Abp1 SH3-swapped baits, to PEX13: distance to Abp1 bait with PEX13 SH3; for Protein-protein interaction distance between Abp1 SH3-swapped baits, to PIN3: distance to Abp1 bait with PIN3 SH3; for Protein-protein interaction distance between Abp1 SH3-swapped baits, to RVS167: distance to Abp1 bait with RVS167 SH3; for Protein-protein interaction distance between Abp1 SH3-swapped baits, to SDC25: distance to Abp1 bait with SDC25 SH3; for Protein-protein interaction distance between Abp1 SH3-swapped baits, to SHO1: distance to Abp1 bait with SHO1 SH3; for Protein-protein interaction distance between Abp1 SH3-swapped baits, to SLA1-1: distance to Abp1 bait with SLA1-1 SH3; for Protein-protein interaction distance between Abp1 SH3-swapped baits, to SLA1-2: distance to Abp1 bait with SLA1-2 SH3; for Protein-protein interaction distance between Abp1 SH3-swapped baits, to SLA1-3: distance to Abp1 bait with SLA1-3 SH3; for Protein-protein interaction distance between Abp1 SH3-swapped baits, to YSC84: distance to Abp1 bait with YSC84 SH3; for PPIs gained by Abp1 - SH3-dependent PPIs gained by Abp1 / SH3-dependent PPIs - SH3-dependent PPIs gained by Abp1 / SH3-dependent PPIs gained by Abp1: number of PPIs, Abp1 SH3-swapped with the listed SH3, Fig2D,S2F; for PPIs gained by Abp1 - SH3-dependent PPIs gained by Abp1 / SH3-dependent PPIs - SH3-dependent PPIs gained by Abp1: difference; for SH3-dependent PPIs gained by Abp1: DHFR-PCA
In short: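 Interactions were scored by DHFR protein-fragment complementation. DHFR F[1,2]-tagged Abp1 strains, whose SH3 was swapped for yeast or human ortholog domains, were crossed on YPD at 30 °C for 48 h with a 1536-format array of 575 prey-DHFR F[3] strains and 40 negatives, giving four replicates per pair. PCA selection lasted 4 days after double diploid selection.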

| Molecule | Protein-protein interaction distance between Abp1 SH3-swapped baits, to ABP1 | Protein-protein interaction distance between Abp1 SH3-swapped baits, to BBC1 | Protein-protein interaction distance between Abp1 SH3-swapped baits, to BEM1-1 | Protein-protein interaction distance between Abp1 SH3-swapped baits, to BEM1-2 | Protein-protein interaction distance between Abp1 SH3-swapped baits, to BOI1 | Protein-protein interaction distance between Abp1 SH3-swapped baits, to BOI2 | Protein-protein interaction distance between Abp1 SH3-swapped baits, to BUD14 | Protein-protein interaction distance between Abp1 SH3-swapped baits, to BZZ1-1 | Protein-protein interaction distance between Abp1 SH3-swapped baits, to BZZ1-2 | Protein-protein interaction distance between Abp1 SH3-swapped baits, to CDC25 | Protein-protein interaction distance between Abp1 SH3-swapped baits, to CTTN | Protein-protein interaction distance between Abp1 SH3-swapped baits, to CYK3 | Protein-protein interaction distance between Abp1 SH3-swapped baits, to DBNL | Protein-protein interaction distance between Abp1 SH3-swapped baits, to FUS1 | Protein-protein interaction distance between Abp1 SH3-swapped baits, to HCLS1 | Protein-protein interaction distance between Abp1 SH3-swapped baits, to HOF1 | Protein-protein interaction distance between Abp1 SH3-swapped baits, to HSE1 | Protein-protein interaction distance between Abp1 SH3-swapped baits, to LSB1 | Protein-protein interaction distance between Abp1 SH3-swapped baits, to LSB3 | Protein-protein interaction distance between Abp1 SH3-swapped baits, to MYO3 | further results |
| --- | --- | --- | --- | --- | --- | --- | --- | --- | --- | --- | --- | --- | --- | --- | --- | --- | --- | --- | --- | --- | --- |
| HSE1 (protein, UniProt P38753 2-452, looked up) Class E vacuolar …: SSSAIKIRNALLKATDPKLRSDNWQYILDVCDLVKEDPEDNGQEVMSLIEKRLEQQDANVILRTLSLTVSLAENCGSRLRQEISSKNFTSLLYALIESHSVHITLKKAVTDVVKQLSDSFKDDPSLRAMGDLYDKIKRKAPYLVQPNVPEKHNMSTQADNSDDEELQKALKMSLFEYEKQKKLQEQEKESAEVLPQQQQQHQQQNQAPAHKIPAQTVVRRVRALYDLTTNEPDELSFRKGDVITVLEQVYRDWWKGALRGNMGIFPLNYVTPIVEPSKEEIEKEKNKEAIVFSQKTTIDQLHNSLNAASKTGNSNEVLQDPHIGDMYGSVTPLRPQVTRMLGKYAKEKEDMLSLRQVLANAERSYNQLMDRAANAHISPPVPGPALYAGMTHANNTPVMPPQRQSYQSNEYSPYPSNLPIQHPTNSANNTPQYGYDLGYSVVSQPPPGYEQ | 9.43 | 7.295 | 11.1 | 30.97 | 7.847 | 11.78 | 14.54 | 5.175 | 7.81 | 24.19 | 9.154 | 25.16 | 5.82 | 16.23 | 9.236 | 29.42 | 0.00 | 12.02 | 12.29 | 11.17 | Protein-protein interaction distance between Abp1 SH3-swapped baits, to MYO5: 10.84; Protein-protein interaction distance between Abp1 SH3-swapped baits, to NBP2: 13.88; Protein-protein interaction distance between Abp1 SH3-swapped baits, to PEX13: 8.715; Protein-protein interaction distance between Abp1 SH3-swapped baits, to PIN3: 9.808; Protein-protein interaction distance between Abp1 SH3-swapped baits, to RVS167: 7.315; Protein-protein interaction distance between Abp1 SH3-swapped baits, to SDC25: 31.59; Protein-protein interaction distance between Abp1 SH3-swapped baits, to SHO1: 5.64; Protein-protein interaction distance between Abp1 SH3-swapped baits, to SLA1-1: 27.26; Protein-protein interaction distance between Abp1 SH3-swapped baits, to SLA1-2: 16.63; Protein-protein interaction distance between Abp1 SH3-swapped baits, to SLA1-3: 11.86; Protein-protein interaction distance between Abp1 SH3-swapped baits, to YSC84: 12.83; PPIs gained by Abp1 - SH3-dependent PPIs gained by Abp1: 4; SH3-dependent PPIs - SH3-dependent PPIs gained by Abp1: 1; SH3-dependent PPIs gained by Abp1: 0 |
| HOF1 (protein, UniProt Q05080 1-669, looked up) Cytokinesis protein 2: MSYSYEACFWDPNDNGVNILLGHISQGIRSCDSMILFFKQRSELEKDYARRLGAITGKLDKDIGTNMDYGKLNETFNVVLSVEKARAQSHSKQSEILFRQIYTDTKAFAANLQARYTTLSGKIERLRMDKFNKKKGCEVLQKKLQDAQIRFRDLQLNENNMIGAKRVEHNKRELLKWESNSQEYKVQLDVLKQEYKASQKFWIHEWAQLSCELQEMENARISFLQSKLQQFATSSMETYILEQTKMDMLTNHLNSFTAADEISTFSKENGTGRLKHKTSKGDMNSSANWAQMSSISTTSKKTESYMDNIRKLSSQLKETENKRKLASIDKYEKPLPSPEVTMATQFRNSTPVIRNETKVVANPTLSLRSSPVQLQSNVDDSVLRQKPDKPRPIVGEEQLKPDEDSKNPDEKGLMVHKRNQSLSSPSESSSSNPTDFSHIKKRQSMESMTTSVSSMANSIDDSQRFAKSWNSSNRKRKSMSHLQVPSSASSRSDDGGRTPNSAHNLNEDDYNTRRDTSTSTILFKPPVAVRGTSRGHTHRQSMIMQDSSNPIEDALYEMERIQSSSKPGTKTGNIMDERGVVRDRGITVTLPIVTSEGFPVIEYAKAMYPLIGNEAPGLANFHKGDYLLITEIVNKDWYKGEVYDNDRIDRNHRIGLIPYNFIQLLHQGL | 30.98 | 29.63 | 23.16 | 6.415 | 26.74 | 25.74 | 21.88 | 30.35 | 27.6 | 10.42 | 25.67 | 10.8 | 29.45 | 21.29 | 32.71 | 0.00 | 29.42 | 35.15 | 34.67 | 33.94 | Protein-protein interaction distance between Abp1 SH3-swapped baits, to MYO5: 33.29; Protein-protein interaction distance between Abp1 SH3-swapped baits, to NBP2: 21.63; Protein-protein interaction distance between Abp1 SH3-swapped baits, to PEX13: 33.79; Protein-protein interaction distance between Abp1 SH3-swapped baits, to PIN3: 32.38; Protein-protein interaction distance between Abp1 SH3-swapped baits, to RVS167: 32.19; Protein-protein interaction distance between Abp1 SH3-swapped baits, to SDC25: 7.905; Protein-protein interaction distance between Abp1 SH3-swapped baits, to SHO1: 29.05; Protein-protein interaction distance between Abp1 SH3-swapped baits, to SLA1-1: 9.015; Protein-protein interaction distance between Abp1 SH3-swapped baits, to SLA1-2: 20.72; Protein-protein interaction distance between Abp1 SH3-swapped baits, to SLA1-3: 35.48; Protein-protein interaction distance between Abp1 SH3-swapped baits, to YSC84: 34.92; PPIs gained by Abp1 - SH3-dependent PPIs gained by Abp1: 1; SH3-dependent PPIs - SH3-dependent PPIs gained by Abp1: 4; SH3-dependent PPIs gained by Abp1: 0 |
